Results on one molecule are retold here after publication PMC3982999.

The target in this test is GST-tetra-ubiquitin (4×UB) (UniProt P0CG48). Briefly: LUMIER.

B1: Renilla luciferase fused to the full-length WT spartin (natural protein)
chain: MEQEPQNGEPAEIKIIREAYKKAFLFVNKGLNTDELGQKEEAKNYYKQGIGHLLRGISISSKESEHTGPGWESARQMQQKMKETLQNVRTRLEILEKGLATSLQNDLQEVPKLYPEFPPKDMCEKLPEPQSFSSAPQHAEVNGNTSTPSAGAVAAPASLSLPSQSCPAEAPPAYTPQAAEGHYTVSYGTDSGEFSSVGEEFYRNHSQPPPLETLGLDADELILIPNGVQIFFVNPAGEVSAPSYPGYLRIVRFLDNSLDTVLNRPPGFLQVCDWLYPLVPDRSPVLKCTAGAYMFPDTMLQAAGCFVGVVLSSELPEDDRELFEDLLRQMSDLRLQANWNRAEEENEFQIPGRTRPSSDQLKEASGTDVKQLDQGNKDVRHKGKRGKRAKDTSSEEVNLSHIVPCEPVPEEKPKELPEWSEKVAHNILSGASWVSWGLVKGAEITGKAIQKGASKLRERIQPEEKPVEVSPAVTKGLYIAKQATGGAAKVSQFLVDGVCTVANCVGKELAPHVKKHGSKLVPESLKKDKDGKSPLDGAMVVAASSVQGFSTVWQGLECAAKCIVNNVSAETVQTVRYKYGYNAGEATHHAVDSAVNVGVTAYNINNIGIKAMVKKTATQTGHTLLEDYQIVDNSQRENQEGAANVNVRGEKDEQTKEVKEAKKKDK
B1 returned a fold weaker binding than to 2×UB of 4 fold.
